Assay results: IntAct's records for PubMed 31515488

B1: Centrosomal protein POC5 (Homo sapiens), Q8NA72 (parent)
chain: MSSDEEKYSLPVVQNDSSRGSSVSSNLQEEYEELLHYAIVTPNIEPCASQSSHPKGELVPDVRISTIHDILHSQGNNSEVRETAIEVGKGCDFHISSHSKTDESSPVLSPRKPSHPVMDFFSSHLLADSSSPATNSSHTDAHEILVSDFLVSDENLQKMENVLDLWSSGLKTNIISELSKWRLNFIDWHRMEMRKEKEKHAAHLKQLCNQINELKELQKTFEISIGRKDEVISSLSHAIGKQKEKIELMRTFFHWRIGHVRARQDVYEGKLADQYYQRTLLKKVWKVWRSVVQKQWKDVVERACQARAEEVCIQISNDYEAKVAMLSGALENAKAEIQRMQHEKEHFEDSMKKAFMRGVCALNLEAMTIFQNRNDAGIDSTNNKKEEYGPGVQGKEHSAHLDPSAPPMPLPVTSPLLPSPPAAVGGASATAVPSAASMTSTRAASASSVHVPVSALGAGSAATAASEEMYVPRVVTSAQQKAGRTITARITGRCDFASKNRISSSLAIMGVSPPMSSVVVEKHHPVTVQTIPQATAAKYPRTIHPESSTSASRSLGTRSAHTQSLTSVHSIKVVD
B2: Calcium-binding and coiled-coil domain-containing protein 2 (Homo sapiens), Q13137 (parent)
chain: MEETIKDPPTSAVLLDHCHFSQVIFNSVEKFYIPGGDVTCHYTFTQHFIPRRKDWIGIFRVGWKTTREYYTFMWVTLPIDLNNKSAKQQEVQFKAYYLPKDDEYYQFCYVDEDGVVRGASIPFQFRPENEEDILVVTTQGEVEEIEQHNKELCKENQELKDSCISLQKQNSDMQAELQKKQEELETLQSINKKLELKVKEQKDYWETELLQLKEQNQKMSSENEKMGIRVDQLQAQLSTQEKEMEKLVQGDQDKTEQLEQLKKENDHLFLSLTEQRKDQKKLEQTVEQMKQNETTAMKKQQELMDENFDLSKRLSENEIICNALQRQKERLEGENDLLKRENSRLLSYMGLDFNSLPYQVPTSDEGGARQNPGLAYGNPYSGIQESSSPSPLSIKKCPICKADDICDHTLEQQQMQPLCFNCPICDKIFPATEKQIFEDHVFCHSL
partner: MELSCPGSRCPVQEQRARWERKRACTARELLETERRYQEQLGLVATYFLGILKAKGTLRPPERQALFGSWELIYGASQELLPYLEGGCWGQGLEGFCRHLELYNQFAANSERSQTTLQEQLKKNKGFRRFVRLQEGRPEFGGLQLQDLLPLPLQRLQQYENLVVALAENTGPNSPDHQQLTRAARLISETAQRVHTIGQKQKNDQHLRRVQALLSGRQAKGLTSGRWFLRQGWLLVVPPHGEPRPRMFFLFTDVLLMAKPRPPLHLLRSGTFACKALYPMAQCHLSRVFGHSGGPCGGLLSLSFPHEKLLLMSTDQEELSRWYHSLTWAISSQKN
B3: EGF-containing fibulin-like extracellular matrix protein 1 (Homo sapiens), Q12805 (parent)
chain: MLKALFLTMLTLALVKSQDTEETITYTQCTDGYEWDPVRQQCKDIDECDIVPDACKGGMKCVNHYGGYLCLPKTAQIIVNNEQPQQETQPAEGTSGATTGVVAASSMATSGVLPGGGFVASAAAVAGPEMQTGRNNFVIRRNPADPQRIPSNPSHRIQCAAGYEQSEHNVCQDIDECTAGTHNCRADQVCINLRGSFACQCPPGYQKRGEQCVDIDECTIPPYCHQRCVNTPGSFYCQCSPGFQLAANNYTCVDINECDASNQCAQQCYNILGSFICQCNQGYELSSDRLNCEDIDECRTSSYLCQYQCVNEPGKFSCMCPQGYQVVRSRTCQDINECETTNECREDEMCWNYHGGFRCYPRNPCQDPYILTPENRCVCPVSNAMCRELPQSIVYKYMSIRSDRSVPSDIFQIQATTIYANTINTFRIKSGNENGEFYLRQTSPVSAMLVLVKSLSGPREHIVDLEMLTVSSIGTFRTSSVLRLTIIVGPFSF
B4: mRNA-decapping enzyme 1A (Homo sapiens), Q9NPI6 (parent)
chain: MEALSRAGQEMSLAALKQHDPYITSIADLTGQVALYTFCPKANQWEKTDIEGTLFVYRRSASPYHGFTIVNRLNMHNLVEPVNKDLEFQLHEPFLLYRNASLSIYSIWFYDKNDCHRIAKLMADVVEEETRRSQQAARDKQSPSQANGCSDHRPIDILEMLSRAKDEYERNQMGDSNISSPGLQPSTQLSNLGSTETLEEMPSGSQDKSAPSGHKHLTVEELFGTSLPKEQPAVVGLDSEEMERLPGDASQKEPNSFLPFPFEQLGGAPQSETLGVPSAAHHSVQPEITTPVLITPASITQSNEKHAPTYTIPLSPVLSPTLPAEAPTAQVPPSLPRNSTMMQAVKTTPRQRSPLLNQPVPELSHASLIANQSPFRAPLNVTNTAGTSLPSVDLLQKLRLTPQHDQIQTQPLGKGAMVASFSPAAGQLATPESFIEPPSKTAAARVAASASLSNMVLAPLQSMQQNQDPEVFVQPKVLSSAIPVAGAPLVTATTTAVSSVLLAPSVFQQTVTRSSDLERKASSPSPLTIGTPESQRKPSIILSKSQLQDTLIHLIKNDSSFLSTLHEVYLQVLTKNKDNHNL
partner: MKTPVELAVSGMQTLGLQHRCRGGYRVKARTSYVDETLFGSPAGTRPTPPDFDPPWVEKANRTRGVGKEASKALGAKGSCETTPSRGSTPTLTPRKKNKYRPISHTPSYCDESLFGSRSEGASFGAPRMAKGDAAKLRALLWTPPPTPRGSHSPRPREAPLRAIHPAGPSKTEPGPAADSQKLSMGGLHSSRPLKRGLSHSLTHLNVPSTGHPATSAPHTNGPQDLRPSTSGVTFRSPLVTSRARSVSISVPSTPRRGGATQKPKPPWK
B5: ADP-ribosylation factor-like protein 2-binding protein (Homo sapiens), Q9Y2Y0 (parent)
chain: MDALEGESFALSFSSASDAEFDAVVGYLEDIIMDDEFQLLQRNFMDKYYLEFEDTEENKLIYTPIFNEYISLVEKYIEEQLLQRIPEFNMAAFTTTLQHHKDEVAGDIFDMLLTFTDFLAFKEMFLDYRAEKEGRGLDLSSGLVVTSLCKSSSLPASQNNLRH
B6: Coiled-coil domain-containing protein 74A (Homo sapiens), Q96AQ1 (parent)
chain: MSGAGVAAGTRPPSSPTPGSRRRRQRPSVGVQSLRPQSPQLRQSDPQKRNLDLEKSLQFLQQQHSEMLAKLHEEIEHLKRENKDLHYKLIMNQTSQKKDGPSGNHLSRASAPLGARWVCINGVWVEPGGPSPARLKEGSSRTHRPGGKRGRLAGGSADTVRSPADSLSMSSFQSVKSISNSGKARPQPGSFNKQDSKADVSQKADLEEEPLLHNSKLDKVPGVQGQARKEKAEASNAGAACMGNSQHQGRQMGAGAHPPMILPLPLRKPTTLRQCEVLIRELWNTNLLQTQELRHLKSLLEGSQRPQAAPEEASFPRDQEATHFPKVSTKSLSKKCLSPPVAERAILPALKQTPKNNFAERQKRLQAMQKRRLHRSVL

Variants of: B1
Settings: with cetn1_human CETN1, Q12798
cetn1_human CETN1, Q12798, sequence (Q12798 whole entry): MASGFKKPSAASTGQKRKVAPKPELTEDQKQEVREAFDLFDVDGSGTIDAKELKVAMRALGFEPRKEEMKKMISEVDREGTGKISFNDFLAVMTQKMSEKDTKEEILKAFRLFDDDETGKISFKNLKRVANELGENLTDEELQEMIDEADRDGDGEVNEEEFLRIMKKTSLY

Row | Variant | effect of a mutation on the interaction
1 | D148N | with no effect
2 | R302K | with no effect

Variants of: B2
Settings: with arg39_human ARHGEF39, Q8N4T4

Row | Variant | effect of a mutation on the interaction
3 | V248A | with no effect

Variants of: B3
Settings: with sgta_human SGTA

Row | Variant | effect of a mutation on the interaction
4 | D49A | with no effect

Variants of: B3
Settings: with ric8a_human RIC8A

Row | Variant | effect of a mutation on the interaction
5 | D49A | with no effect

Variants of: B4
Settings: with rita1_human RITA1, Q96K30

Row | Variant | effect of a mutation on the interaction
6 | Q474H | with no effect
7 | A297G | with no effect
8 | P332T | with no effect

Variants of: B5
Settings: with arl2_human ARL2, P36404
arl2_human ARL2, P36404, sequence (P36404 whole entry): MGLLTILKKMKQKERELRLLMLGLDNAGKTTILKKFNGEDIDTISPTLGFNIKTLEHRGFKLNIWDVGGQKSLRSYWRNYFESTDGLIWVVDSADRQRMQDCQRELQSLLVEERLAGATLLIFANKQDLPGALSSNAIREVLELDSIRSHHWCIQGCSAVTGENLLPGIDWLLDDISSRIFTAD

Row | Variant | effect of a mutation on the interaction
9 | E87K | disrupting interaction strength
10 | M45R | disrupting interaction strength

Variants of: B6
Settings: with mtus2_human MTUS2, Q5JR59
mtus2_human MTUS2, Q5JR59, sequence (Q5JR59 whole entry): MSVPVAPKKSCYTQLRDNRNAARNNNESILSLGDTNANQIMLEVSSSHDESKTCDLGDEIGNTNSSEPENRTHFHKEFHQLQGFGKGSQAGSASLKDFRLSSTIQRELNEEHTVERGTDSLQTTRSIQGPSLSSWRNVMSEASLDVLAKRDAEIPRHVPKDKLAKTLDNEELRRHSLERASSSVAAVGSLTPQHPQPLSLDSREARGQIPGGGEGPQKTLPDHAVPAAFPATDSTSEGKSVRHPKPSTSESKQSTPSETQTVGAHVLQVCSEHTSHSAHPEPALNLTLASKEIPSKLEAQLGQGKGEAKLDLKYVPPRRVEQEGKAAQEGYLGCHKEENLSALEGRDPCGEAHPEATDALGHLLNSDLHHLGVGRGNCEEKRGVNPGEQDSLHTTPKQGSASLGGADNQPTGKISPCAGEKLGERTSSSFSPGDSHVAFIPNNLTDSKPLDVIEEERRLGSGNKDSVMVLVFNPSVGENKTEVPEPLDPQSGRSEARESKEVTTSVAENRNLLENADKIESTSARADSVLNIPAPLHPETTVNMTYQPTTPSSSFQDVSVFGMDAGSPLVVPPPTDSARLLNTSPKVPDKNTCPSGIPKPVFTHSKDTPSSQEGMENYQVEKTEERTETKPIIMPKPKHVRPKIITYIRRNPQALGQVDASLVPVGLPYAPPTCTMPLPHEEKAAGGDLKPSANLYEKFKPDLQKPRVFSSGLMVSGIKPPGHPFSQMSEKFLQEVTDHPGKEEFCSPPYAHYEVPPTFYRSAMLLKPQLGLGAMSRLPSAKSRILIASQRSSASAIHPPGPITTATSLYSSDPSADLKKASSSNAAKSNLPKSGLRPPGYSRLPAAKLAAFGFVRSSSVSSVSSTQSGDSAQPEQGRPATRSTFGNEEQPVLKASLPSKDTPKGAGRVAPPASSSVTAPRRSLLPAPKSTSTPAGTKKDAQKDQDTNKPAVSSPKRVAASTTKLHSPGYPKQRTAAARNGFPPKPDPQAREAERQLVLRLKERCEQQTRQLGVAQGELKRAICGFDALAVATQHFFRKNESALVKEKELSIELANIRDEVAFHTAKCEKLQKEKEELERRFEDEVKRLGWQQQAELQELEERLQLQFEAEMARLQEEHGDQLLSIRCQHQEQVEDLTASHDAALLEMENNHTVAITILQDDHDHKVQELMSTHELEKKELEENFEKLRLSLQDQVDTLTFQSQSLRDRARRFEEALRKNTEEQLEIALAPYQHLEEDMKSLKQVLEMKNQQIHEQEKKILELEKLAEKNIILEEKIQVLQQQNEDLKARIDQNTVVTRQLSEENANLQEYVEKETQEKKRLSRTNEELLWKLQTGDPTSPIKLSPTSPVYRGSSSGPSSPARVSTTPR

Row | Variant | effect of a mutation on the interaction
11 | G302R | with no effect
